Assay [1] concerns the target T1, Polyhistidine-tagged recombinant human GFAP expressed from E. coli (human, UniProt P14136 1-432).
T1 construct: also called His-tagged GFAP; not shown: polyhistidine tag
Nature of the assay: BLI (Octet QKe); His-tagged GFAP on anti-Penta-HIS sensor, antibody in solution. How it is done: (§1) The rates of association (kₒₙ) and dissociation (koff) of the anti-GFAP antibodies were determined by bio-layer interferometry using an Octet QK^e instrument according to the manufacturer's instructions (ForteBio). See Tobias et al., Biomolecular Binding Kinetic Assays in the Octet Platform, Application Note 14, ForteBio, Div. of Pall Life Sciences, 2013. Polyhistidine-tagged recombinant human GFAP expressed from E. coli was used as the antigen. The antigen was bound at a concentration of 8.3 μg/ml to an anti-Penta-HIS(HIS1K) capture biosensor containing an anti-histidine antibody (ForteBio) for use with the Octet QK^e instrument.
Background: BLI is a label-free optical method that tracks binding on a fibre tip over time.

The target in assay [2] is T2, Polyhistidine-tagged recombinant human UCH-L1 expressed from E. coli (human, UniProt P09936 1-223, limits assumed).
T2 construct: also called UCH-L1-His; not shown: polyhistidine tag
Kind of assay: BLI (Octet QKe); His-tagged UCH-L1 on anti-Penta-HIS sensor, antibody in solution. How it is done:
as §1, with “anti-UCH-L1” for “anti-GFAP”, “UCH-L1” for “GFAP”, “[…]” for “μg/ml”

Bounds are passed on as bounds.

T2 sequence (P09936 whole entry): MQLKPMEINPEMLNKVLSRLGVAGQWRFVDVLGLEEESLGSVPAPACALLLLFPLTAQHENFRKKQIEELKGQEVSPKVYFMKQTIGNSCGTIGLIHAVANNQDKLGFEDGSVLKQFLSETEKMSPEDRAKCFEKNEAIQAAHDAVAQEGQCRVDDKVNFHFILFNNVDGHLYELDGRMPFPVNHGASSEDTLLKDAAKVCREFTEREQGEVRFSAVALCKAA
T1 sequence (P14136 whole entry): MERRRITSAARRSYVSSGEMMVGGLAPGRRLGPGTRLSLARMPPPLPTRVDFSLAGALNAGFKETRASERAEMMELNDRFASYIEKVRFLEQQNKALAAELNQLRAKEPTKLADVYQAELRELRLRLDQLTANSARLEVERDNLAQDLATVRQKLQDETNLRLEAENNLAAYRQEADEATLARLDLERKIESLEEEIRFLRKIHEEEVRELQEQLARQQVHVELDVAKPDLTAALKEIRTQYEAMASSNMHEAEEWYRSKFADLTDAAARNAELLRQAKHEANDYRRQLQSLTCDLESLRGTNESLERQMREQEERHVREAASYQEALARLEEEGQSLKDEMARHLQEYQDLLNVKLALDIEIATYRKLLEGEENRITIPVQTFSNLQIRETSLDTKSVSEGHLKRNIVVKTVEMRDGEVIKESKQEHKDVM

B1: GFAP-6 (antibody, V domains shown)
VH: EVQLQQSGAEFVKPGASVKLSCTASGFNIKDTDMHWVRQRPEQGLESIGLIDPAIGNTKYDPKFQGKATITADTSSNAAYLQLSSLTSEDTAVYYCARSDRYLAWFAYWGQGTLVTVSA
VL: DIVMTQSPATLSVTPGDRVSLSCRASQSISDFLHWYQQKSHGSPRLLIKYSSQSISGIPSRFSGSGSGSDFTLSINSVEPEDVGVYYCQNGHTFPYTFGGGTKLEIK
notes: also called mouse anti-GFAP antibody GFAP-6; HRP-labeled anti-GFAP antibody
On to B1, for which, in assay [1], the Kd (commonly the concentration at which binding is half-saturated) was 1.07 nM; the koff – broadly, the first-order rate constant of dissociation – is 0.000124 s⁻¹; the kon (as a rule, the rate constant with which the complex forms) amounted to 116000 M⁻¹ s⁻¹.

B2: GFAP-8 (antibody, V domains shown)
VH: EVQLLQSGTVLARPGASVKMSCKASGYSFTSYWMHWIKQRPGQGLEWIGAIHPGNRDTSYNQKFKDKAKLTAVTSASTAYMELSSLTNEDSAVYFCTREDYWGQGTTLTVSS
VL: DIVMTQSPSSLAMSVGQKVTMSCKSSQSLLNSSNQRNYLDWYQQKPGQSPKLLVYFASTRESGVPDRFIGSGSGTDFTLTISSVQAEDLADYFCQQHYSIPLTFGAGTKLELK
notes: Same variable domains as GFAP-7; also called mouse anti-GFAP antibody GFAP-8
For B2, in assay [1], the Kd is 1.11 nM, the koff stood at 0.000133 s⁻¹ and the kon stood at 120000 M⁻¹ s⁻¹.

B3: UCH-L1-4 (antibody, V domains shown)
VH: AVQLQQSGPELVKPGASVKISCKTSGDTFTEHFMNWVKQSHGESLEWIGIINPYTDGTNYDQKFKDKATLTVDKSSSTAYMELRSLTSEDSAVYYCARWGGDGEGYWGQGTTLTVSS
VL: DIVMTQAAPSVSVTPGESVSISCRSSKSLLHSNGNTYLYWFLKRPGQSPQLLIYRMSNLASGVPDRVSGSGSGTAFTLRISRVEAEDVGIYYCMQHLEYPLTFGAGTKLELK
notes: also called mouse anti-UCH-L1 antibody UCH-L1-4
B3: in assay [2], the Kd was found to be 0.0369 nM, the koff was determined as 1.4e-05 s⁻¹ and the kon was 378000 M⁻¹ s⁻¹.

B4: UCH-L1-5 (antibody, V domains shown)
VH: EVKLVESGGGSVQPGGSLSLSCAASGFTFTEYYMSWVRQFPGKALEWLAFIRNRAHGYTTEYSASVKGRFTISRDNSQSILYLQMNALRTEDSATYYCASSYGAPFAYWGQGTLVSVSA
VL: DIVMTQAAPSVPVTPGESVSISCRSSKSLLHSDGNTYLYWFLQRPGQSPQLLIYRMSNLASGVPDRFSGSGSGTAFTLRISRVEAEDVGVYYCMQHLEYPLTFGAGTKLELK
notes: also called mouse anti-UCH-L1 antibody UCH-L1-5; HRP-labeled anti-UCH-L1 detection antibody
Take B4: in assay [2], the Kd is below 0.001 nM, the koff stood at 1e-07 s⁻¹ and the kon was 459000 M⁻¹ s⁻¹.

B5: UCH-L1-7 (antibody, V domains shown)
VH: EVQLQQSGPELVKPGASVKISCKTSGYTFTEYTMHWVKQSHGKSLDWIGGINPNNGRTSYNQKFKGKATLTVDKSSSTAYMELRSLTSEDSAVYYCARRLGRGFYFDYWGQGTTLTVSS
VL: DIVLTQSPASLAVSLGQRATISCRASESVDSYGNNLMHWYQQKPGQPPKLLIYLSSNLESGIPARFSGRGSRTDFTLTINPVEADDVATYYCQQSNGDPYTFGGGTKLEIK
notes: also called mouse anti-UCH-L1 antibody UCH-L1-7
For B5, in assay [2], the Kd is 0.0187 nM, the koff came out at 2.5e-06 s⁻¹ and the on-rate (kon) turned out to be 133000 M⁻¹ s⁻¹.

B6: UCH-L1-8 (antibody, V domains shown)
VH: EVQLQQSGPDLVKPGTSVKISCKTSGYTFTEYTMHWVKQSHGRSLEWIGGLNPNNGRTSYNQKFKGKATLTVDKSSSIAYMELRSLTSEDSAVYYCARRLGRGFYFDYWGQGTTLTVSS
VL: DIVLTQSPASLAVSLGQRATISCRASESVDSYGNNLMHWYQQKPGQSPKLLIYRASNLESGIPGRFSGRGSRTDFTLTINPVEADDVATYYCQQSNGDPYTFGGGTKLEIK
notes: also called mouse anti-UCH-L1 antibody UCH-L1-8
As to B6, in assay [2], the Kd is 0.0474 nM, the koff was 6.7e-06 s⁻¹ and the kon is 141000 M⁻¹ s⁻¹.

B7: UCH-L1-6 (antibody, V domains shown)
VH: EVQLQQSGPELVKPGASVKISCKTSGYTFTEYTMHWVKQSHGKSLDWIGGINPNNGRTSYNQKFKGKATLTVDKSSSTAYMDFRSLTSEDSAVYYCARRLGRGFYFDYWGQGTTLTVSS
VL: DIVLTQSPASLAVSLGQRATISCRASESVESYGNNLIHWYQQKLGQPPKLLIYLSSNLEPGIPARFSGRGSRTDFTLTINPVEADDVATYYCQQSNGDPYTFGGGTKLEIR
notes: also called mouse anti-UCH-L1 antibody UCH-L1-6
B7: in assay [2], the Kd is below 0.001 nM, the koff was determined as 1e-07 s⁻¹ and the kon was 145000 M⁻¹ s⁻¹.

B8: UCH-L1-10 (antibody, V domains shown)
VH: EVQLQQSGPDLVKPGTSVKISCKTSGYTFTEYTMHWVKQSHGRSLEWIGGFNPNNGRTSYNQKFKGKATLTVDKSSSTAYMELRSLTSEDSAVYYCSRRLYRGFYFDYWGQGTTLTVSS
VL: DIVLTQSPASLAVSLGQRATISCRASESVDSYGNNLMHWYQQKPGQSPKLLIYRASNLESGIPGRFSGRGSRTDFSLTINPVEADDVATYYCQQSNGDPYTFGGGTKLEIK
notes: also called mouse anti-UCH-L1 antibody UCH-L1-10
For the molecule B8, in assay [2], the Kd came out at 0.043 nM, the koff is 4.6e-06 s⁻¹ and the kon worked out at 107000 M⁻¹ s⁻¹.

B9: UCH-L1-9 (antibody, V domains shown)
VH: EVQLQQSGPELVKPGASVKISCKTSGYTFTEYTMHWVKQSHGKSLDWIGGINPNNGRTSYNQKFKGKATLTVDKSSSTAYMELRSLTSEDSTVYYCARRLGRGFYFDYWGQGTTLTVSS
VL: DIVLTQSPASLAVSLGQRATISCRASESVDSYGNNFMHWYQQKPGQPPKLLIYLSSNLESGIPARFSGRGSRTDFTLTINPVEADDVATYYCQQSNGDPYTFGGGTKLEMK
notes: also called mouse anti-UCH-L1 antibody UCH-L1-9
In the case of B9, in assay [2], the Kd was found to be 0.0857 nM, the koff stood at 1.01e-05 s⁻¹ and the kon was 118000 M⁻¹ s⁻¹.

B10: UCH-L1-2 (antibody, V domains shown)
VH: EVMLVESGGGLVKPGGSLKLSCAASGFIFSSHAMSWIRQIPEKRLEWVATISSGGSNTYYPDSVKGRFTISRDNAKNILYLQMSSLRSEDTAIYYCTRHGEVRRGYYFDYWGQGTTLTVSS
VL: DIQMTQTPSSLSASLGDRVTISCSASQGITNYLNWYQQKPDGTVKLLIYYTSSLHSGVPSRFSGSGSGTDYSLTISNLEPEDFATYYCQHYSNLPWTFGGGTKLEIK
notes: also called mouse anti-UCH-L1 antibody UCH-L1-2
Take B10: in assay [2], the Kd is 0.207 nM, the koff was 3.01e-05 s⁻¹ and the kon was found to be 146000 M⁻¹ s⁻¹.

B11: GFAP-9 (antibody, V domains shown)
VH: DVQLQESGPGLVKPSQSLSLTCSVTGYSITSGFYWSWIRQFPGNKLEWMGYISYDGSNNYNPSLKNRISITRDTSKNQFFLKLNSVTTEDTATYYCARAYGYDGAWFAYWGQGTLVTVSA
VL: DIVMTQSQKFMSTSVGDRVSITCKASQNVRTAVAWYQQKPGQSPKALIYLASNRHTGVPDRFTGSGSGTDFTLTISNVQSEDLADYFCLQHWNNPYTFGGGTKLEIK
notes: also called mouse anti-GFAP antibody GFAP-9
Take B11: in assay [1], the Kd came out at 18 nM, the koff was 0.000701 s⁻¹ and the kon was determined as 39000 M⁻¹ s⁻¹.

B12: UCH-L1-1 (antibody, V domains shown)
VH: QVQLQQPGSELVRPGASVKLSCKASGYTFTSYWMHWVKQRPGQGLEWIGNIYPGSGSTNYDEKFKSKATLTVDTSSSTAYMQLSSLTSEDSAVYYCTREDYWGQGTTLTVSS
VL: DVLMTQTPLSLPVSLGDQASISCRSSQNIVHSNGNTYLEWYLQKPGQSPKLLIYKVSNRFSGVPDRFSGSGSGTDFTLKISRVEAEDLGVYYCFQGSHVPFTFGSGTKLEIK
notes: also called mouse anti-UCH-L1 antibody UCH-L1-1
Regarding B12, in assay [2], the Kd is below 0.001 nM, the koff was below 1e-07 s⁻¹ and the kon was found to be 58800 M⁻¹ s⁻¹.

B13: GFAP-5 (antibody, V domains shown)
VH: EVQLVESGGGLVKPGGSLKLSCAASGFTFSAYGMHWVRQAPEKGLEWIAYISSGSSTIYYADTVKGRFTISRDNAKNTLFLQMTSLRSEDTAMYYCASSYALDYWGQGTSVTVSS
VL: DVVMTQTPLSLPVSLGDQASISCRSSQSLVYSNGNTYLHWYLQKPGQSPKLLIYKVSNRFSGVPDRFSGSGSGTDFTLKISRVEAEDLGVYFCSQSTHVPYTFGSGTKLEIK
notes: also called mouse anti-GFAP antibody GFAP-5
Turning to B13, in assay [1], the Kd was determined as 5.36 nM, the koff was found to be 0.000107 s⁻¹ and the kon stood at 20000 M⁻¹ s⁻¹.

B14: UCH-L1-3 (antibody, V domains shown)
VH: QVQLQQPGSELVRPGASVKLSCRASGYTFTSYWIHWVKQRHGQGLEWIGNIYPGSGITNYDEKFKTKGTLTVDTSSSTVYMHLISLTSEDSAVYYCTREDYWGQGTTLTVSS
VL: DVLMTQTPLSLPVSLGDQASISCRSSQSIVHSNGNTYLEWYLQKPGQSPKLLIYKVSNRFSGVPDRFSGSGSGTDFTLKISGVETEDLGVYYCFQGSHVPFTFGGGTKLEIK
notes: also called mouse anti-UCH-L1 antibody UCH-L1-3
Turning to B14, in assay [2], the Kd stood at 0.367 nM, the koff was found to be 1.34e-05 s⁻¹ and the kon was found to be 36400 M⁻¹ s⁻¹.

B15: GFAP-10 (antibody, V domains shown)
VH: EVKLVESGGGLVKPGGSLKLSCAASGFTFSYYAMSWVRQTPEKRLEWVASISSGGTTYHPDSVKGRFTISRDNARNILYLQMSSLRSEDTAMYYCARGGHWYFDVWGAGTTVTVSS
VL: QIVLTQSPAIMSASPGEKVTMTCSASSSVSYMHWYQQKSGTSPKRWIYDTSKLASGVPARFSGSGSGTSYSLTISSMEAEDAATYYCQQWSTNPLTFGAGTKLDLK
notes: also called mouse anti-GFAP antibody GFAP-10
Regarding B15, in assay [1], the Kd is below 0.001 nM, the koff was determined as 1e-07 s⁻¹ and the kon stood at 53300 M⁻¹ s⁻¹.

For the origin of these results see patent publication US20210347914A1 (BANYAN BIOMARKERS, published 2021).
